Laboratory results reported in paper PMC10369405 (JACS Au, 2023).

Molecular target: T1, full-length human Gasdermin D (human, UniProt P57764 1-484)
T1 construct: Gasdermin D, human, UniProt P57764, 484 residues (53 kDa); His6-SUMO tag removed with Ulp1 protease and anion exchange; also called hGSDMD; GSDMD; source: E. coli BL21 (DE3) Gold, purified (HisTrap, Ulp1 cleavage, anion exchange, Superdex 75)
T1 sequence (looked up): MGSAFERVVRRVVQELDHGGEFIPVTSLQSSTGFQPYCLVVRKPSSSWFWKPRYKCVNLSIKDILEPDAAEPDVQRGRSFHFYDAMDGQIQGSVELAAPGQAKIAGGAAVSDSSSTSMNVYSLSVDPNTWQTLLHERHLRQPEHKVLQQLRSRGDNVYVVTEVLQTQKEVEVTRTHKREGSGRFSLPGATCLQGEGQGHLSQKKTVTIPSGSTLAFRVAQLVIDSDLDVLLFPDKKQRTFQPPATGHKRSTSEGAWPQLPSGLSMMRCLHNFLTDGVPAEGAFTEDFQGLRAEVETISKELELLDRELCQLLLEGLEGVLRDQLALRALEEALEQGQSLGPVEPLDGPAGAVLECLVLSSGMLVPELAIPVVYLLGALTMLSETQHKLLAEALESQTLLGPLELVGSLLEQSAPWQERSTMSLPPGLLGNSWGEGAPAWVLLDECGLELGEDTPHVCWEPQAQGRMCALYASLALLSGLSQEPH
Assay: native gel or EMSA; native-PAGE, 12% polyacrylamide, 150 V, 25 mM Tris-HCl, 192 mM glycine, pH 8.3; Caspase-1 alone (40 uM), GSDMD alone (40 uM), GSDMD/Caspase-1 at 1:1 and 2:1 equivalents, with and without 20 mM NaTDB
Conditions: both partners purified

B1: human Caspase-1 (C285A) p20/p10 dimer (complex)
chain 1: NPAMPTSSGSEGNVKLCSLEEAQRIWKQKSAEIYPIMDKSSRTRLALIICNEEFDSIPRRTGAEVDITGMTMLLQNLGYSVDVKKNLTASDMTTELEAFAHRPEHKTSDSTFLVFMSHGIREGICGKKHSEQVPDILQLNAIFNMLNTKNCPSLKDKPKVIIIQAARGDSPGVVWFKD
chain 2: AIKKAHIEKDFIAFCSSTPDNVSWRHPTMGSVFIGRLIEHMQEYACSCDVEEIFRKVRFSFEQPDGRAQMPTTERVTLTRCFYLFPGH
notes: peptides 279-286 and 287-297 are assigned to it; Caspase-1 p10 subunit (p10 fragment), human; peptides 342-352, 375-383 and 384-391 are assigned to it; Polycistronic vector encoding an N-terminal His-tag; also called hCaspase-1 (C285A); protease C285A
binding result: binds
